The source of these data is US20160376333A1 (University of Washington, published 2016).

Experiment [1] deals with Mcl-1 in human cancer cell lines (HeLa, colon cancer lines) (human, UniProt Q07820 1-350). Kind of experiment: cell-based or functional assay.
The target of experiment [2] is T1, human Mcl-1 a.a. 172-327 with C-terminal avi-6his tag (human).
T1 chain: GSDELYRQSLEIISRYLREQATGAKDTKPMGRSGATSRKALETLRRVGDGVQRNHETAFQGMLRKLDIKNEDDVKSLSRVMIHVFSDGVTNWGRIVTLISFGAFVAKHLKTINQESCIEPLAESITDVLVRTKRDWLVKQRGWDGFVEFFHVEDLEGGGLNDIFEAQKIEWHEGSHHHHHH
Kind of experiment: ratio of the KD of the next tightest BCL2 protein to the KD of the target, BLI.

Experiment [3] has as its target T2, human Bcl-2 a.a. 1-207 with C-terminal avi-6his tag (human, UniProt P10415 2-207). Kind of experiment: BLI, biotinylated target on streptavidin sensor, range of analyte concentrations. (In BLI a coated tip is dipped into the sample, and binding shifts an interference pattern.)
Target sequence in this assay (P10415 other isoform, or with tags, fused parts or gaps limits assumed): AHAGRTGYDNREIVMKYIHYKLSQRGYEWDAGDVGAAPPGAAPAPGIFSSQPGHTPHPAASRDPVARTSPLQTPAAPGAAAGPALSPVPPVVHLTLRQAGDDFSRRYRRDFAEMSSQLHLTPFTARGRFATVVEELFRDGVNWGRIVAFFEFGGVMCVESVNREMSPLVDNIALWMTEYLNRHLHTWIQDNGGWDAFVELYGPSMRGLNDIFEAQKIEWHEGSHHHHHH
Experiment [4] has as its target T3, human Bcl-w a.a. 1-182 with C-terminal avi-6his tag (human, UniProt Q92843 1-182).
T3 construct: range 1-182; also called BCL2L2
T3 sequence: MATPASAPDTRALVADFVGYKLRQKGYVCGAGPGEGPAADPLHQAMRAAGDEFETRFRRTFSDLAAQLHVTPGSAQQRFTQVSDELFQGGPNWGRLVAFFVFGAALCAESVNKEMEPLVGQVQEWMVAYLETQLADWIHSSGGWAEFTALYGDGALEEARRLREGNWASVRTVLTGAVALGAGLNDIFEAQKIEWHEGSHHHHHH
Described as above.

The target of experiment [5] is T1, human Mcl-1 a.a. 172-327 with …. Described as above.
Experiment [6] has as its target T4, human Bfl-1 a.a. 1-153 (C4S) with C-terminal avi-6his tag (human).
T4 construct: also called A1/Bfl-1
T4 chain: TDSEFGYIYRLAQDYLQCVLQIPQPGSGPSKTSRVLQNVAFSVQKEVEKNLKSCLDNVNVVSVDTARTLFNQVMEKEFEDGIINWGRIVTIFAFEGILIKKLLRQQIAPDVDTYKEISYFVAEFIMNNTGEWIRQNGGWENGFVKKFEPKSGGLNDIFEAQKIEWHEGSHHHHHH
Described as above.

Experiment [7] addresses T5, human Bcl-XL a.a. 1-205 with C-terminal avi-6his tag (human, UniProt Q07817 2-206).
T5 construct: also called BCL2L1
Described as above.
Target sequence in this assay (Q07817 other isoform, or with tags, fused parts or gaps limits assumed): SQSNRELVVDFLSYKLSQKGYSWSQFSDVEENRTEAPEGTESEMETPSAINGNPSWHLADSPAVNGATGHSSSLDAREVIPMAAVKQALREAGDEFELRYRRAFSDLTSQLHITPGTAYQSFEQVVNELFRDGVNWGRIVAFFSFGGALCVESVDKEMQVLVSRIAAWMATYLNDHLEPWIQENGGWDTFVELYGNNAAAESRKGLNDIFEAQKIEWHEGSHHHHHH

Experiment [8] deals with T6, human Bcl-B a.a. 11-175 with C-terminal avi-6his tag (human).
T6 construct: also called BCL2L10
T6 chain: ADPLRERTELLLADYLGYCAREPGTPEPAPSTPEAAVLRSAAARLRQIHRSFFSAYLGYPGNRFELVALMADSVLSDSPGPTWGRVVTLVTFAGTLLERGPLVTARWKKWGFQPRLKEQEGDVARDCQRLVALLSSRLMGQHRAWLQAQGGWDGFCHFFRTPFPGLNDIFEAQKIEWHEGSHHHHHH
The experiment is described as above.

In experiment [9] the target is T1, human Mcl-1 a.a. 172-327 with …. The experiment can be described thus: BLI.
Experiment [10] has as its target T7, Epstein-Barr virus BHRF1 a.a. 1-161 with C-terminal avi-6his tag (Epstein-Barr virus).
T7 construct: also called EBV BHRF1; BHRF1-biotin
T7 chain: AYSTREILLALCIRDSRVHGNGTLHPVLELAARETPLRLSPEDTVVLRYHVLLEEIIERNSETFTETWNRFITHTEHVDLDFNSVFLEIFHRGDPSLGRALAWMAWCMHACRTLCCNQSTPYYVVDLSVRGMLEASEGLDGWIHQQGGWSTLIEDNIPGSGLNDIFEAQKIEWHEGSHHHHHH
The experiment can be described thus: BLI, biotinylated target on streptavidin sensor.

The target in experiment [11] is T2, human Bcl-2 a.a. 1-207 with C-terminal …. The experiment can be described thus: BLI, biotinylated target on streptavidin sensor.
The target in experiment [12] is T3, human Bcl-w a.a. 1-182 with C-terminal …. The experiment can be described thus: BLI, biotinylated target on streptavidin sensor.
The target of experiment [13] is T1, human Mcl-1 a.a. 172-327 with …. The experiment can be described thus: BLI, biotinylated target on streptavidin sensor.
Experiment [14] addresses T4, human Bfl-1 a.a. 1-153 (C4S) with …. The experiment can be described thus: BLI, biotinylated target on streptavidin sensor.
Experiment [15] has as its target T5, human Bcl-XL a.a. 1-205 with C-terminal …. The experiment can be described thus: BLI, biotinylated target on streptavidin sensor.
Experiment [16] addresses T6, human Bcl-B a.a. 11-175 with C-terminal …. Kind of experiment: BLI, biotinylated target on streptavidin sensor.
For experiment [17], the target named is T7, Epstein-Barr virus BHRF1 a.a. 1-161 …. Kind of experiment: yeast surface display titration (apparent KD).
Experiment [18] concerns the target T2, human Bcl-2 a.a. 1-207 with C-terminal …. The experiment can be described thus: yeast surface display titration (apparent KD).
In experiment [19] the target is T3, human Bcl-w a.a. 1-182 with C-terminal …. Kind of experiment: yeast surface display titration (apparent KD).
For experiment [20], the target named is T1, human Mcl-1 a.a. 172-327 with …. The experiment can be described thus: yeast surface display titration (apparent KD).
Experiment [21] addresses T4, human Bfl-1 a.a. 1-153 (C4S) with …. The experiment can be described thus: yeast surface display titration (apparent KD).
Experiment [22] has as its target T5, human Bcl-XL a.a. 1-205 with C-terminal …. Kind of experiment: yeast surface display titration (apparent KD).

Substitutions are numbered along the chain they refer to. Numbers in names are those of the source.

Chain of Mcl-1 in human cancer cell lines (HeLa, colon cancer lines) (Q07820 whole entry): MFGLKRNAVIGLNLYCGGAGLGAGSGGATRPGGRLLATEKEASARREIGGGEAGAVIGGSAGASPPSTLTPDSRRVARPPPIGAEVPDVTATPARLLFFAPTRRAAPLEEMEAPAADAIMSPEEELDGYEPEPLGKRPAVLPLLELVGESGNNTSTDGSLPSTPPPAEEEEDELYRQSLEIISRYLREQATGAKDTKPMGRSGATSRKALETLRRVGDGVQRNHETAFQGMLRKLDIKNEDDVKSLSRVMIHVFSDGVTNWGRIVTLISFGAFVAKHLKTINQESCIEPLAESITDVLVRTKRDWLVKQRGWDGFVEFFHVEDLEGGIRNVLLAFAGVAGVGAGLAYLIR

B1: MINDI (Mcl-1-inhibiting design acting intracellularly) (designed binder)
chain: ADPKKVLDKAKDQAENRVRELKQVLEELYKEARKLDLTQEMRKKLIERYAAAIIRAIGDINNAIYQAKQEAEKLKKAGLVNSQQLDELLRRLDELQKEASRKANEYGREFELKLEY
notes: also called M-CDP04; αMCL1
On to B1, for which, in experiment [1], the “decrease of the EC50 of A-1331852 in colon cancer lines on expression of αMCL1” value came to 4.6 fold. Also, in experiment [2], the Specificity came to 93000 fold. The Kd in experiment [3] amounted to 14.2 µM; in [4] it was 200 µM; in experiment [5], 0.00015 µM; in [6], 30 µM; in experiment [7] it was 400 µM; in experiment [8] it was 40 µM.

B2: BINDI N62S (designed binder)
chain: ADPKKVLDKAKDQAENRVRELKQKLEELYKEARKLDLTQEMRRKLELRYIAAMLMAIGDIYSAIRQAKQEADKLKKAGLVNSQQLDELKRRLEELKEEASRKARDYGREFQLKLEY
Turning to B2, the “fold decrease of affinity relative to BINDI” value in experiment [9] turned out to be 6 fold. The Kd in [10] amounted to 0.00016 µM; in [11], 30 µM; in experiment [12], 4.6 µM; in [13] it was 0.23 µM; in [14] it was 4 µM; in experiment [15], 8 µM. The same molecule returned a Kd in [16] of 50 µM.

B3: BbpD04.2 (designed binder)
chain: B2 chain with P3W, Q13I, L28F, R33M, E46M, Y49W, Y61F, S62N, A103C
On to B3, for which the Kd in [17] came to 0.0006 µM; in [18], 0.033 µM; in experiment [19], 0.04 µM; in [20], 0.026 µM; in [21], 0.07 µM; in [22] it was 0.031 µM.
